Where two headings read alike, the source gives them in different places.
Tests used:
Assay in all cases: EMSA
[1] = target: T1, FLAG-Dmp1 (Dmp1alpha);p53 (mouse?;, UniProt Q8CE22;P04637 1-761;1-393, |)
FLAG-Dmp1 (Dmp1alpha) = target: T2, FLAG-Dmp1 (Dmp1alpha) (UniProt Q8CE22 1-761)
T2 sequence: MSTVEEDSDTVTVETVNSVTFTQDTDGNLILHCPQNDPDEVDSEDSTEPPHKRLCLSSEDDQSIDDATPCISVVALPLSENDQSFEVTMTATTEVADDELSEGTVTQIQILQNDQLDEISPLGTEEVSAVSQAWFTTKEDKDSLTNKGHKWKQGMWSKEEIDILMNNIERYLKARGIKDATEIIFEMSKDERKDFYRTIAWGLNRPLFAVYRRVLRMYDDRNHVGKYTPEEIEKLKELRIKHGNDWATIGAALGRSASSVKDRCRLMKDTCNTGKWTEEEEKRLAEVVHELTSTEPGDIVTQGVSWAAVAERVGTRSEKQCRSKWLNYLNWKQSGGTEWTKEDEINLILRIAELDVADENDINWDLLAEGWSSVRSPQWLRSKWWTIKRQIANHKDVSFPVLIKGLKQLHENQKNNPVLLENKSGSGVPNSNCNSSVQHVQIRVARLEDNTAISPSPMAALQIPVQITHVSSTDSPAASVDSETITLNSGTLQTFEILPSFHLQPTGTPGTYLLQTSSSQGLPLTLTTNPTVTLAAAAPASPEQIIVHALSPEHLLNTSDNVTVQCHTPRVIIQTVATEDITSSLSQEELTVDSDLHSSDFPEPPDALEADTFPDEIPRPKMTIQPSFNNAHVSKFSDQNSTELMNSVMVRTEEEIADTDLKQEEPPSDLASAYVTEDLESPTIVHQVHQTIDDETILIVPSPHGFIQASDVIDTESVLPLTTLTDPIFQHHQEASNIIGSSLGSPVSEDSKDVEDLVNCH

[2] = target: T1, FLAG-Dmp1 (Dmp1alpha);p53; remark: listed apart in the source
p53 = p53 (UniProt P04637 1-393)

B1: p53-g general p53 consensus (dsDNA)
DNA 1: AGGCATGCCTAGGCATGCCT
DNA 2: AGGCATGCCTAGGCATGCCT
How did the binding signal [1] turn out when B1 was run?
Its binding signal is 6 fold vs p53 alone.

B2: mouse Arf promoter Dmp1 site (dsDNA)
DNA 1: TACCTCGTGGGGCGGATGCACAGAAGCAC
DNA 2: GTGCTTCTGTGCATCCGCCCCACGAGGTA
Does B2 bind (FLAG-Dmp1 (Dmp1alpha))?
Result: binds

B3: mouse p21Cip1 p53 consensus #2 (dsDNA)
DNA 1: AGACTGGGCATGTCTGGGCA
DNA 2: TGCCCAGACATGCCCAGTCT
For B3, which binding signal [2] is on record?
The binding signal was 3 fold vs p53+BSA.

Does B3 bind (p53)?
Result: binds

Reference: article PMC6262109
